Target: the molecule itself
Assay: SEC-MALS; Superdex 200 Increase 10/300; 20 mM Tris-HCl pH 8.0, 150 mM NaCl; 0.5 mL/min; His6-TRAF6-CC at 1 and 6.57 mg/ml, tagless TRAF6-CC at 0.934 and 1.57 mg/ml; calibrated with BSA

Row | Protein | stoichiometry N
1 | His6-THROM-TRAF6-CC (human TRAF6 coiled-coil domain, residues 288-348, with N-terminal His6 tag and thrombin cleavage site) (domain or fragment, UniProt Q9Y4K3 288-348, looked up, TRAF6, human, UniProt Q9Y4K3, coiled-coil domain, residues Y288-Q348; Cloned in pET28a between NdeI and XhoI; a thrombin cleavage site lies between the His6 tag and the domain; Printed mass of the tagged monomer is 9.61 kDa; also called His6-TRAF6-CC; hexahistidine-tagged TRAF6-CC; source: E. coli BL21-CodonPlus (DE3) RIPL, purified (Ni-NTA, SEC); not shown: His6, N-terminal, kept) YISEVRNFQETIHQLEGRLVRQDHQIRELTAKMETQSMYVSELKRTIRTLEDKVAEIEAQQ | 3
2 | tagless TRAF6-CC (human TRAF6 coiled-coil domain, residues 288-348, His6 tag removed by thrombin) (domain or fragment, UniProt Q9Y4K3 288-348, looked up, TRAF6, human, UniProt Q9Y4K3, coiled-coil domain, residues Y288-Q348; Made from m1 by bovine thrombin; source: E. coli BL21-CodonPlus (DE3) RIPL, purified (Ni-NTA, thrombin cleavage, reverse Ni-NTA, SEC); not shown: His6, N-terminal, cleaved) YISEVRNFQETIHQLEGRLVRQDHQIRELTAKMETQSMYVSELKRTIRTLEDKVAEIEAQQ | 3

— publication doi:10.64898/2025.12.24.696318, “TRAF6 coiled-coil domain mediates its trimerization” (bioRxiv, 2025)
